Results taken from the nanobody polyreactivity screen of Harvey et al. (2022).

assay: yeast display, Sf9 membrane polyspecificity reagent, FACS + sequencing; frameworks hold sequencing errors
Method in brief: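 Polyreactivity labels are assigned by the sorting gate from which each nanobody was recovered. The gates were low and high (top ~1%), set on anti-HA fluorescence for expression and streptavidin fluorescence for reagent binding. Before sorting, galactose-induced (36–48 hours) yeast display cells were stained for 1 hour at 4 °C with 10% biotinylated, detergent-solubilized Sf9 membrane reagent.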

| Sequence | polyreactivity (PSR sort gate) |
| --- | --- |
| QVQLVESGGGLVHAGGSLRLSCAACGTTFINYAMGWYRQAPGKVRELVAVITSDDGSTYYADSVKGRFTISRDNAKNTVYLQMNSLKPEDTAVYYCAADYYDQRYRPGPWYDYWGQGTQVTVSS | low polyreactivity |
| QVQLVESGGGLVQAGGSLRLSCAASGIIFSSYVMGWYRQAPGKERELVAAISSRGVSTYYADSVKGRFTISRDNAKNTVYLQMNSLKPEDTAVYYCAGVGPSYVRYYYWGQGTQVTVSS | high polyreactivity |
| QVQIVESGGGLVQAGGSLRLTCAASGFTFYKKAMGWYIQAPGKERELVAAITSSGGSTYYADSVKGRFTISRDNAKNTVYLQMNSLKPEDTAVYYCAAYPQAYIADYDYWGQGTQVTVSS | low polyreactivity |
| QVQLVESGGGLVQAGGSLRLSCAASGNTFAYNVMGWYRQAPGKERELVAAISRSGGSTYYADSVKGRFTISRDNAKNTVYLQMNSLKPEDTAVYYCAAVGRRVRPEGSYNRWGHDYWGQGTQVTVSS | high polyreactivity |
| QVQLVESGGGLVQAGGSLRLSCAASGSTITSYAMRLYRQAPGKDRELVASISRSGGRTYYADSVKGRFTISRDNAKNTVYLQMNSLKPEDTAVYYCAADDYSATTRYYYWGQGTQVTVSS | high polyreactivity |
| QVQLVESGGGLVQAGGSLRLSCAASGSTFGYYAMGWYRQAPGKEREVVAALDSSGDTYYADSVKGRFTISRDNAKNTVYFQMNSLKPEDTAVYYCAADFWVSSYWGYGYWGQGTQVTVSS | high polyreactivity |
| QVQLVESGGGLVQAGGSLRLSCAASGRIMPFYAMGWYRQAPGKERELVATISWTSDSTYYADSVKGRFTISRDNAKNTVFLQMNSLKPEDTAVYYCAREYTYTYASTVIYDHWGQGTQVTVSS | low polyreactivity |
| QDQLVESGGGLVQAGGSLRLSCAASGIFPYYAMGGYRQAPGTEREFVAAITRSGGSTYYADSVKGRFTISRDNAKKTVYLQMNSLKPEDTAVYYCNKRYGYTGFSPRYDYWGQGTQVTVSS | low polyreactivity |
| QVQLVESGGGLVQAGGSLRLSCAASGGTFYGYAMGWYRQAPGKERELVAAISYNGGNTYYADSVKGRFTISRDNAKNTVYLQMNSLKAEDTAVYYCAAGYSYRYGYWGQGTQLTVSS | low polyreactivity |
| QVQLVESGGGLVQAGGSLRLSCAASGGTFSYYTMGWYRQAPGKERELVARISKNGGRTYYADSVKGRFTISRDNAKNTVYLQMNCLKPEDTAVYYCNAAGRTYDFSGGRTMEYWGQGTQVTVSS | high polyreactivity |
| QVQLVESGGGLVQAGGSLRLSCAASGSIFYTNAMGWYRQAPGKERELVAAITRTGSTNYADSVKGRFTISRDNAKNTVYLQMNSLKPEDTAVYYCNARRYYRYGYWGQGTQVTVSS | high polyreactivity |
| QVQLVESGVGLVQAGGSLRLSCAASGSTFGRYAMGWYRQAPGKERELVARISWGGGSTYYADSVKGRFTISRDNAKNTVYILMISLKPEDSAVYDCATRVYRSAVSYDYWGQGTQVTVSS | high polyreactivity |
| QVHHVESGGGLVQAGGSLRLSCAASGITFSSYAMGWYRQAPRKERELVAAISYGGGNTYYADSVKGRFTISRDNAKNTVYLQMNSLKPEDTAVYYCNTLYTSYSGLDYWGQGTQVTVSS | high polyreactivity |
| QVQLVESGGGLVQAGGSLRLSCAASGSIFNYNAMGWYRPAPGKERELVAALNSGGSTNYADSVKGRFTISRDNAKNTVYLQMNSLKPEDPAVYYCAADNYSQGVPYDYWGQGTQVTVSS | low polyreactivity |
| QVQLVESGGGLVQAGGSLRLSCAASGSIFHPNAMGWYRQAPGKERELVAAITKSGGSTYYADSVKGRFTISRDNAKNTVYLQMNSLKPEDTAVYYCNALRYRRVGTLGYDYWGQGTQVTVSS | high polyreactivity |
| QVQLVESGGGLVQAGGSLRLSCAASGITFKGYTMGWYRQAPGTERELVATISRGGRTYADSVKGRFTISRDNAKNTVYLQMNSLKPEDTAVYYCAADKYWAQNDYWGQGTQVTVSS | low polyreactivity |
| QVQLVESGGGLVQAGGSLRLSCAASGRTFPNYVIGWYRQATGKERELVAAINSGGRTNYADSVKGRFTISRDNAKNTVYLQMNRLKQEDTAFYFCTKRGHPARLGYYYWGQGTQVTVSS | low polyreactivity |
| QVQLVESGGGLVQAGGSLRLSCAASGRIFYVYSMGWYRQAPGKDRELVADISRGGSTNYADSVKGRFTISRDNAKNTVYLQMNSLKPEDTAVYYCNTDGLWSAEYDYWGQGTQVTVSS | low polyreactivity |
| QVQLVESGGALVKAGGSLRLSCAASGYIFYGYAMGRYRQAPGKEWELVAAITVRGGSTYYADSVKGRFTISRDNAKNTVYLQMNSLKPEDTAVYYCAAAPQFTFGVGYWGQGTQVTVSS | low polyreactivity |
| QVQLVESGGGLVQAGGSLRLSCAASGFTFRRYVMGWYRQAPGKERELVAAISQSGGSTYYADSVKGRFTISRDNAKNTVYLQMNSLKPEDTAVYYCAAAKVPYGWEQSDYWGQGTQVTVSS | high polyreactivity |
| QVQLVESGGGLVQAGGSLRLSCAASGRTFYINAMGWYRQAPGKERELVAGINSRGGSTYADSVKGRFTISRDNAKNTVYLQMNSLNPEDTAVYYCNARRKYLGYNYWGQGTQVTVSS | high polyreactivity |

| Sequence | polyreactivity (PSR sort gate) |
| --- | --- |
| QVQLVESGGGLVQAGGSLRLSCAASGFIFADYAMGWYRQAPGKERELVAAITSSGTRTYYADSVKGRFTISRDNAKNTVYLQMNSLKPEDTAVYYCAVRGVYYYHCAFDYWGQGTQVTVSS | high polyreactivity |
| QVQLVESVGGLVQAGGSLRLSCAASGLMFWYYTMGWYRQAPGKERELVAAIRSGGSTNYADSVKGRFTISRDNAKNTVYLQMNSLKPEDTAVYYCAARKWHSAYDYWGQGTQVTVSS | high polyreactivity |
| QVQLVESGGGLVQAGGSLRLSCAASGRILGFYAMGWDRQAPGKERELVARINWSGTRTYYADSVKGRFTISRDNAKNTVYLQMNSLKPEDTAVYYCAAERYPYVVTYSKLDYWGQGTQVTVSS | high polyreactivity |
| QVQLVESGGGLVQAGGSLRVSCAASGRIFGYNAMGWSRQAPVKERELDAAIRGGGSTYYADSVKGRFTISRDNAKHSVYLQMYSLKPEDTAVYYCAATSYTYVLSPYRGDYWGQGTQVTVSS | high polyreactivity |
| QVQLVESGGGLVQAGGSLRLSCAASGSISPYNAKGWYRQAPGKERELVAAISSGGRTYYAVSVKGRFTISRDNAKNTVYLQMNSLKPEDTAVYYCNKYPLRPYRGLGVYYRSDYWGQGTQVTVSS | high polyreactivity |
| QVQLVESGGGLVQAGGSLRLSCAASGSTFRWNAMGWYRQAPGKERELVAAITWSGGSTYYADSVKGRFTISRDNAKNTVYLQMNSLKPEDTAVYYCNAGGLFQYDSWGQGTQVTVSS | low polyreactivity |
| QVQLVESGGGLVQAGGSLRLSCAASGSIFTYYAMGWYRQAPGKERELVAAISWRSGSTYYADSVKGRFTISRDNAKNTVYLQMNSLKPEDTAVYYCAAEDFDYAVWYDYWGQGTQVTVSS | high polyreactivity |
| HVQLVESGGGLVQEGGSLRLSCAASGSILALYAMGWDRQAPGKERELVAAISSGDSTSYADSVKGRFTISRDNAKNTVYLQMNSLKPEDTAVYYCAADRPIYPYPGKGFRYDYWGQGTQVTVSS | low polyreactivity |
| QVQLQERGGGLVQVGGSKRLSCAASGNIFYNYSMGWYRHAQGKEREFDDTINHGTSINYADSVKGRFTISRDKATNTGYLEMNSLKPEDTAVFYCAADRSWTDNLFYWGQGSQVTVSS | low polyreactivity |
| QVQLVESGGGLVQAGGSLRLTSAASGSIFRYYTMGWYRHAPRKERELVAAISRNGGSTYYADSVKGRFTISRDNAKNSVYLQMNSLKPVDTAVYYCNADGGDWFGYVGMDYWGQGTQVTVSS | high polyreactivity |
| QFQLVESGGGLVQAGGSLRLSCAASGRTFRGYAMGWYRQAPGKERELVPAITWRGGSTYYADSVKGRFTISRDNAKNTVYLQMKSLKPEDTAVYYCNTLVWSYLGGYYSRYDYWGQGTQVTVSS | high polyreactivity |
| QDQLVESGGGLVQAGGSLRLSCAASGSTFPAYAMGWYRQAPGKERELVAAISVRRGRTYYADSVKGRFTSSRDNAKNTVYLQMNSLKPDDTAVYYCAAYLRPGGNYYWGQGTQVTVSS | high polyreactivity |
| QVQLVESGGGLVQAGGSLRLSCAASGRIFYGNTMGWYRQAPGKERELVAAITWRGGSTYYADSVKGRFTISRDNAKNTVYLQMNSLKPEVTAVYYCAAVSYRGRGYWGQGTQVTVSS | high polyreactivity |
| QVQLVESGGGLVQAGGSLRLSCAASGRIFNMYAMGWYRQAPGKERELVAAISVSGTRTYYADSVKGRFTISRDNAKNTVYLQMNSLKPEDTAVYYCAADSYGGVWSEHMYYWGQGTQVTVSS | low polyreactivity |
| QVQLVESGGGLGQAGGSLRLSCAASGRTFRYYAKGWYRQAPGKERELVAAINRGGSTSYADSVKGRFTISRDNAKNTVYLQMNSLKPEDTAVYYCNVDKYRLVGFHSPYDYWGQGTQVTVSS | high polyreactivity |
| QVQLVESGGGLVQAGGSLRLSCAASGFIFRRYVMGWYRQAPGKERELVAAISYGGGSTYYADSVKGRFTISRDNAKNTVYLQMNSLKPEDTAVYYCAARVYYDAYDYWGQGTQVTVSS | high polyreactivity |
| QDQLVESGGGLVQAGGSLRLSCAASGSTFHLYAMGWYRQAPGKERELVAAITRRGSDTYYADSVKGRFTISRDNAKNTVYLQMNSLKPEDTAVYYCAARDRHPVWGQGTQVTVSS | low polyreactivity |
| QVQLVESGGGLVQAGGSLRLSCAASGRIFWYYTMGWYRQAPGKERELVAAISNGGSTYYADSVKGRFTISRDNAKNTVYLQMNSLKPEDTAVYYCAAVGARGGYFRMDYWGQGTQVTVSS | high polyreactivity |
| QVQLVESGGGLVQAGGSLRLSCAACGRTFYQNAMGWYRQAPGKERELVAAISRSGGSTYYADSVKGRFTISLYNAKNTVYLQMNSLKPEDTAVYFCAADPRSYGGGYDYWGQGTQVTVSS | high polyreactivity |
| QVQLVESGGGLVQEGGSLRLSCAASGIIFDGNARGWYRQAPGKEKELVASITSDSSTNYADSVKGRFTISRDNAKNTVYLQMNSLKPEDTAVYYCAAAHWIAPRSDYWGQGTQVTLSS | low polyreactivity |
